Results taken from patent publication US20110305783A1, “Method and pharmaceutical composition for treating psoriasis, squamous cell carcinoma and/or parakeratosis by inhibiting expression of squamous cell carcinoma-related antigen” (Shiseido Company, Ltd., priority 2005, published 2011).
“Also recorded” adds a separate entry of the source. Read-outs that look alike come from different tables or passages of the source. Ends that are not written are not given here. * marks the point of attachment. Cbz = O=C(OCc1ccccc1)*; CH2F = FC*

T1: caspase-14 (Homo sapiens, UniProt P31944)
T1 construct: human caspase-14 is purified in the form of a heterodimer composed of a large subunit (17 KDa) and a small subunit (11 KDa); from tissue; host or cells: human cornified cells (heel stratum corneum)
T1 sequence (P31944 6-146 limits assumed): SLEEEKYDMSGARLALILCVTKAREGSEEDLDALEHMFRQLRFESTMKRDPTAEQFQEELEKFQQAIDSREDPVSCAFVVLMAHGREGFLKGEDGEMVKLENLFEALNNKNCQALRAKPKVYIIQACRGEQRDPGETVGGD
T1 sequence (P31944 153-242 limits assumed): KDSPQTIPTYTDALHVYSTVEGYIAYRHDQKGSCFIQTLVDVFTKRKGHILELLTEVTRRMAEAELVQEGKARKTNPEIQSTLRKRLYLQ

T2: caspase-3 (Homo sapiens, UniProt P42574)
T2 construct: purchased BIOMOL Research Labs, Inc. (Plymouth Meeting, Pa.)
T2 sequence (P42574 29-277): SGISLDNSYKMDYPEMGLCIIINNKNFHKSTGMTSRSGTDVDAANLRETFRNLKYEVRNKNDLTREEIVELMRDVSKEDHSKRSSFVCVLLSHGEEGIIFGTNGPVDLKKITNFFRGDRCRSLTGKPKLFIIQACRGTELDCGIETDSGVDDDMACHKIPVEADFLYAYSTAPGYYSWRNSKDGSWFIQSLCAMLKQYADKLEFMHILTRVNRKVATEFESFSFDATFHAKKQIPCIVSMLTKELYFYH

B1: SCCA-1: recombinant squamous cell carcinoma antigen 1, member of the serpin superfamily, intrinsic inhibitor of caspase-14 (protein)
chain: MNSLSEANTKFMFDLFQQFRKSKENNIFYSPISITSALGMVLLGAKDNTAQQIKKVLHFDQVTENTTGKAATYHVDRSGNVHHQFQKLLTEFNKSTDAYELKIANKLFGEKTYLFLQEYLDAIKKFYQTSVESVDFANAPEESRKKINSWVESQTNEKIKNLIPEGNIGSNTTLVLVNAIYFKGQWEKKFNKEDTKEEKFWPNKNTYKSIQMMRQYTSFHFASLEDVQAKVLEIPYKGKDLSMIVLLPNEIDGLQKLEEKLTAEKLMEWTSLQNMRETRVDLHLPRFKVEESYDLKDTLRTMGMVDIFNGDADLSGMTGSRGLVLSGVLHKAFVEVTEEGAEAAAATAVVGFGSSPTSTNEEFHCNHPFLFFIRQNKTNSILFYGRFSSP

Experiments:
Type in all cases: biochemical
[1] = target: T1, caspase-14; assay: Inhibitor assay on purified caspase-14, WEHD-MCA hydrolysis activity
Method: Caspase-14 was incubated with peptide inhibitors of caspase (consisting of YVAD, VDVAD, DEVD, VEID, IETD, LEHD and DNLD) and class-specific inhibitors of cysteine proteinase (IAA) and serine proteinase (AEBSF). Residual enzyme activity was measured using WEHD-MCA as substrate in the presence of 1.3 M sodium citrate and 5 mM DTT. […] The values are shown as the average values of duplicate assays.
Briefly, the assay mixture was prepared from 45 μl of 0.1 M HEPES buffer (pH 7.5), 0.06 M NaCl, 0.01% CHAPS, 5 mM DTT, 1.3 M sodium citrate and 10 μM WEHD-MCA (all concentrations indicate the final concentrations). An enzyme sample (5 μl) was added to this mixture followed by incubating for 10 to 30 minutes. The reaction was stopped with 150 μl of 0.1 M monochloroacetic acid, and measurements were performed at an excitation wavelength of 355 nm and emission wavelength of 460 nm using Fluoroskan Ascent FL (Thermo Electron Co., Wolsam, Mass.). In the case of the inhibitor assay, caspase-14 and peptide inhibitor were incubated in the assay buffer for 15 minutes, and the assay was started with the addition of 5 μl of 100 μM WEHD-MCA.
Human cornified cells (approx. 14 g) scraped from the heels of healthy individuals were extracted with 0.1 M Tris-HCl (pH 8.0) containing 0.14 M NaCl using a glass homogenizer. A supernatant was obtained after centrifuging at 15,000 g for 60 minutes. After concentrating with Amicon Ultra (Millipore, Mass.) and desalting with the Fast Desalting Column HR10/10 (Amersham Biosciences), the crude product was applied to a HiPrep 16/10 QXL column. […] In addition, hydrolysis activity with respect to Ac-[…]-Glu-His-Asp-methyl-coumarin amide (WEHD-MCA) (Peptide Institute, Inc., Osaka, Japan) was measured for each fraction. Positive fractions were placed on a Mono Q column equilibrated with the same buffer and eluted a maximum NaCl gradient of 1 M. The caspase-14 fraction was further separated by Mono S cationic exchange chromatography. The column was equilibrated with 20 mM acetate buffer (pH 4.5) and eluted at an NaCl gradient of 0 to 1 M. Positive fractions were concentrated and placed on a chromatofocusing Mono P column equilibrated with 25 mM ethanolamine (pH 8.3). The column was eluted while forming a pH gradient from 8 to 5 using 46 ml of Polybuffer (pH 5.0). The caspase-14 was finally purified using Superdex 75 gel chromatography. The protein concentration was determined with the BioRad Protein Assay Kit (BioRad Lab, Hercules, Calif.).

[2] = system: Recombinant caspases-1 to 10; assay: Recombinant caspases incubated with SCCA-1, hydrolysis of synthetic caspase substrates; conditions: recombinant caspase incubated with SCCA-1 (FIG. 10C)
Method: (§1) ICAD decomposition was only observed in the presence of kosmotropic salt. […] When SCCA-1 was added to the mixture, ICAD decomposition was virtually not detected, and there were still no effects after incubating for 16 hours (B). (C) The results are shown of investigating hydrolysis activity on synthetic caspase substrates in the presence of kosmotropic salt.
Benzyloxycarbonyl (Z)-YVAD-FMK, Z-VDVSD-FMK, Z-DEVD-FMK, Z-VEID-FMK, Z-IETD-FMK, Z-LEHD-FMK and Z-VAD-FMK were purchased from BioVision (Mountain View, Calif.). Recombinant caspases-1 to 10 were obtained from BIOMOL Research Labs, Inc. (Plymouth Meeting, Pa.).
(§2) Although SCCA-1 is a member of the serpin superfamily, it inhibits cysteine proteases such as papain and cathepsin L (Takeda, A., et al., Biol. Chem., 383, 1231-6 (2002)). […] Thus, the inventors of the present invention conducted a test as to whether or not SCCA-1 is able to inhibit caspase members. Kosmotropic conditions were used in the case of caspase-14. […] Recovery of enzyme activity was not observed even if the incubation time increased.

[3] = target: T2, caspase-3; assay: Caspase-3 activity with SCCA-1, synthetic substrate DEVD-MCA or natural substrate ICAD
Source text: The enzymatic characteristics of purified caspase-14 were extremely unique. […] The inventors of the present invention determined for the first time that SCCA-1 is an intrinsic inhibitor against caspase-14. The most unique characteristic of SCCA-1 is its remarkable specificity for caspase-14. Other members of caspase-1 to -10 are not affected by SCCA-1. […] Crm A belongs to the serpin superfamily and is known to be able to inhibit a large number of caspases including caspase-1 and caspase-8 (Gagliardini, V., et al., Science 263, 826-(1994)). XIAP is known to inhibit caspase-3, -7 and -9 (Srinivasula, S. M., et al., Nature 410, 112-6 (2001)). Since the anti-apoptotic protein p35 inhibits caspase-1, -3, -6, -7, -8 and -10, it is considered to have a broader spectrum.

[4] = target: T1, caspase-14; assay: ICAD decomposition by purified caspase-14, Western blot; conditions: pre-incubation with 10 μM SCCA-1, kosmotropic salt, Western blot (FIG. 10B)
Method: as §1
The inventors of the present invention tested the effects of caspase-14 on ICAD during the course of searching for natural substrates of caspase-14. This is because disappearance of the nucleus is an extremely important event for terminal differentiation.
as §2

[5] = inhibitors at 5, 2.5 and 1.25 μM, WEHD-MCA substrate, 1.3 M sodium citrate, 5 mM DTT

| Molecule | Inhibitory effect on purified caspase-14 activity [1, 5] | further results |
| --- | --- | --- |
| VAD-FMK: pan-caspase inhibitor (Cbz-Val-Ala-Asp-CH2F) | sensitivity; also recorded: one of the most potent caspase-14 inhibitors |  |
| Benzyloxycarbonyl (Z)-YVAD-FMK | extremely potent inhibitory effects; also recorded: most potent inhibitory action |  |
| VDVAD-FMK: caspase-2 inhibitor (VDVAD-CH2F) | sensitivity |  |
| VEID-FMK: peptide inhibitor of caspase (Cbz-VEID-CH2F) | hardly any effect |  |
| O=C(O)CI [IAA, iodoacetic acid] |  | Inhibitory effect on purified caspase-14 activity [1]: did not exhibit significant inhibitory effects |
| NCCc1ccc(S(=O)(=O)F)cc1 [ABBSF, 4-(2-aminoethyl)benzenesulfonyl fluoride] | did not exhibit significant inhibitory effects |  |
| DEVD-FMK: caspase-3 inhibitor | sensitivity |  |
| LEHD-FMK: caspase-9 inhibitor (Cbz-LEHD-CH2F) | sensitivity |  |
| IETD-FMK: caspase-8 inhibitor (Cbz-IETD-CH2F) | sensitivity |  |
| B1 |  | Effect on enzyme activity of caspase members (1 to 10) [2]: None of the caspase members (1 to 10) were affected; Inhibition of caspase-3 activity [3]: did not inhibit; Inhibition of ICAD cleavage by caspase-14 [4]: inhibited decomposition of ICAD; also recorded: completely inhibited |
